Laboratory results from publication PMC5481773, “Structural insights into the function of ZRANB3 in replication stress response” (Nature Communications, 2017).

Molecular target: T1, His-tagged Proliferating Cell Nuclear Antigen (PCNA) (human, UniProt P12004 1-261)
T1 construct: human PCNA, cloned into the NdeI and XhoI sites of pET28a for expression with an N-terminal His-tag; Used for ITC and for the peptide pull-downs; also called His-tagged PCNA; His-tagged recombinant PCNA; source: E. coli, from pET28a, purified (Ni-NTA, Q-sepharose, Superdex S-200); not shown: His tag, N-terminal, kept
T1 sequence (P12004 whole entry): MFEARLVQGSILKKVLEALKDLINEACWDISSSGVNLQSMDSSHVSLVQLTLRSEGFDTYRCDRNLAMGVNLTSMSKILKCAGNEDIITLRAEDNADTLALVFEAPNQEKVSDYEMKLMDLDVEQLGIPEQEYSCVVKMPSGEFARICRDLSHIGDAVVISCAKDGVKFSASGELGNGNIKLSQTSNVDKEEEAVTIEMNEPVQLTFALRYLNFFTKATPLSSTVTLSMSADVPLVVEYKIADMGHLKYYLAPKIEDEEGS
Assay: ITC; 15 μM PCNA in the cell, peptides injected stepwise (20 injections of 2 μl), 25 °C, PBS with 1 mM β-mercaptoethanol, single set of independent binding sites model
Settings: both partners purified

| Binder | Kd [µM] | stoichiometry N [peptide per PCNA monomer] |
| --- | --- | --- |
| EKEKQHDIRSFFVPQ [ZRANB3 PIP box synthetic peptide used for ITC] | 4.8 | 1 |
| SKHGSDITRFLVKK [ZRANB3 APIM motif synthetic peptide used for ITC] | 9.24 | 1 |
